Assay results taken from patent publication US20060239998A1.
Values belong to the binder of their own block, whether it stands above or below them.

Tests used:
[1] = target: Factor VIII (human recombinant FVIII) (human) (UniProt P00451); test: cell-based or functional assay
[2] = target: BO2C11 surface antibody on the BO2C11 lymphoblastoid B-cell line; test: flow cytometry on the BO2C11 lymphoblastoid cell line, 1 or 10 µg/ml antibody, anti-mouse IgG-FITC
[3] = target: polyclonal antibodies of 6 unrelated patients with haemophilia A and inhibitor towards the C2 domain; test: immunoprecipitation of radiolabelled C2 domain with patient polyclonal antibodies and protein A Sepharose; Ab 14C12 added at increasing concentration
[4] = target: human monoclonal antibody BO2C11, FVIII-specific IgG4kappa inhibitory antibody against the C2 domain; test: cell-based or functional assay
[5] = target: human monoclonal antibody BO2C11, FVIII-specific IgG4kappa inhibitory antibody against the C2 domain; test: surface plasmon resonance
[6] = target: polyclonal antibodies of the patient from whom BO2C11 was derived; test: cell-based or functional assay

Factor VIII (human recombinant FVIII) (human), sequence (P00451 20-2351): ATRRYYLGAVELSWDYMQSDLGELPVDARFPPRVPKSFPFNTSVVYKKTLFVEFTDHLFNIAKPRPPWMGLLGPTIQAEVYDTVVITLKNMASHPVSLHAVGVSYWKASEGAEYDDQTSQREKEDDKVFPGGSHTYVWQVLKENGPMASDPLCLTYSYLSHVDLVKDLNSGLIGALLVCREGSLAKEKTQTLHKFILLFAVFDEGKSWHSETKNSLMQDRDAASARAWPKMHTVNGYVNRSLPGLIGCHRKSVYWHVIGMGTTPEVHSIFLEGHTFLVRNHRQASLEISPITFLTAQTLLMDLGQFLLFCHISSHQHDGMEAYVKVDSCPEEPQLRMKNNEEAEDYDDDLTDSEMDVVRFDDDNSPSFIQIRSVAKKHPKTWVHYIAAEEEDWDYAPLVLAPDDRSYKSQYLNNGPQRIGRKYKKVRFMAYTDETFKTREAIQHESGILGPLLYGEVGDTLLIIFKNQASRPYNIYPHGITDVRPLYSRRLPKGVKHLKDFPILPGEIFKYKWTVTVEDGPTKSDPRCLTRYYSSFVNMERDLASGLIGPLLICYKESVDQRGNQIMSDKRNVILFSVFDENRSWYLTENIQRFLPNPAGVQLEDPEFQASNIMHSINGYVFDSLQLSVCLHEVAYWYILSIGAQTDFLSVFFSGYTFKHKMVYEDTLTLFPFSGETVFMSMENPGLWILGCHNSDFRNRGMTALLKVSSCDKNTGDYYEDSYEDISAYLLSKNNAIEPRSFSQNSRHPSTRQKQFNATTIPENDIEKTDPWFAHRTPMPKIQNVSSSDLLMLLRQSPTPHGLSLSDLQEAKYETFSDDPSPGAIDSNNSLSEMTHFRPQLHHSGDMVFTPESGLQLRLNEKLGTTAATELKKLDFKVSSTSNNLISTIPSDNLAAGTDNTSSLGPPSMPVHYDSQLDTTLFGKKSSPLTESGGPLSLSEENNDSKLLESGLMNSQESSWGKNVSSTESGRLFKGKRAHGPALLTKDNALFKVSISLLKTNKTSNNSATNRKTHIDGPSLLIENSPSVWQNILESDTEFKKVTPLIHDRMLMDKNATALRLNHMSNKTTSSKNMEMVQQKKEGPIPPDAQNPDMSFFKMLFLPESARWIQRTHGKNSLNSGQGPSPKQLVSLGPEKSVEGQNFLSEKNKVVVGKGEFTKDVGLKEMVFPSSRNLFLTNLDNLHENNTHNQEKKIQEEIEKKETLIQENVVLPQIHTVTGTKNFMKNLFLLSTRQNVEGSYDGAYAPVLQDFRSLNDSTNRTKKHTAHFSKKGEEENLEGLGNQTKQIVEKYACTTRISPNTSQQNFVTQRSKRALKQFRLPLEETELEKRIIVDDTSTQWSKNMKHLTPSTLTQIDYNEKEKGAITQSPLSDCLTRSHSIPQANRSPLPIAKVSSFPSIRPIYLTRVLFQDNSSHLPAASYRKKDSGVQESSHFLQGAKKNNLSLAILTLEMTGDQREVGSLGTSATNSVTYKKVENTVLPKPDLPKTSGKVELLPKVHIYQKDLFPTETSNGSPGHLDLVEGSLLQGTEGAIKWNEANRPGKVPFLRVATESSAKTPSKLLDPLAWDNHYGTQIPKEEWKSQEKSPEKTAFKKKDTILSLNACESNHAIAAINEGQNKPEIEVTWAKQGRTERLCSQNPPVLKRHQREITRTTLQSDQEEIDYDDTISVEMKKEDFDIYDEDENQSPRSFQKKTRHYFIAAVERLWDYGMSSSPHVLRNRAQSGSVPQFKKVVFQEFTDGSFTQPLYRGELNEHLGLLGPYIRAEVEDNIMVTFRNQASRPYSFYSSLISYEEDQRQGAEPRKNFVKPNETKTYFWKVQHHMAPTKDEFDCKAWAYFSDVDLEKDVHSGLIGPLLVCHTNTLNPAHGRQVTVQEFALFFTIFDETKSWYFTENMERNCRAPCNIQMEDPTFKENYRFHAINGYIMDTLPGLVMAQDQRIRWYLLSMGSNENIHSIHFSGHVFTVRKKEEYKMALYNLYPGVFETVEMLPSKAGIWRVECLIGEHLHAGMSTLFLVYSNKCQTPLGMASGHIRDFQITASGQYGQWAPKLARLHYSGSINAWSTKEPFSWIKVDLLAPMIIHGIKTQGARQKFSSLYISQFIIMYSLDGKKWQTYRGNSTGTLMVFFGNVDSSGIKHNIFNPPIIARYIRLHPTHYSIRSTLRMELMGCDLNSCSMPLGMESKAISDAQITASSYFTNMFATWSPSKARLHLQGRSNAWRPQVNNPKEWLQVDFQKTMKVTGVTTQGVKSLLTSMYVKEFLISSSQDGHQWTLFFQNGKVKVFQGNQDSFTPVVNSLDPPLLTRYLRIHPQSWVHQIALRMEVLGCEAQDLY

inhibition of FVIII procoagulant activity in FVIII-/- mice (% inhibition at 0.5 µg BO2C11) [1]: 98 | inhibition of FVIII-dependent substrate conversion (Faktor VIII chromogen test) (% inhibition at 0.1 µg/ml BO2C11) [1]: 100
B1: human monoclonal antibody BO2C11, FVIII-specific IgG4kappa inhibitory antibody against the C2 domain (antibody, from another filing, V domains shown)
VH: QVQLVQSGAEVKKPGASVKVSCKVSGYTLTELPVHWVRQAPGKGLEWVGSFDPESGESIYAREFQGSVTMTADTSTDIAYMELSSLRSDDTAVYYCAVPDPDAFDIWGQGTMVTVSS
VL: EIALTQSPGTLSLSPGERATLSCRASQSFSSSYLAWYQQKPGQAPRLLIYGASTRATGIPDRFSGSGSGTDFTLTISRLEPEDFAVYYCQKYGTSAITFGQGTRLEIK

percent of cells positive [2]: 68% | percent neutralisation [3]: 50% | in vivo neutralisation of BO2C11-mediated FVIII inhibition in FVIII-/- mice (% neutralisation at equimolar ratio) [4]: 50 | neutralisation of BO2C11 inhibitory capacity (chromogenic assay) ([4]; scale: % neutralisation at a '11' molar ratio): 50 | in vivo neutralisation of BO2C11-mediated FVIII inhibition in FVIII-/- mice ([4]; scale: molar excess of Ab 14C12 over BO2C11 for full neutralisation): 3.5 | koff [5]: 1e-05 s⁻¹
B2: anti-idiotypic antibody Ab 14C12 obtained from cell line 14C12 (LMBP 5878CB) (antibody, V domains shown)
VH: EVQLQQSGPELVKPGASVKLSCKASGYTFTSSVMHWLKQKSGQGLEWIGYINPYNDGTKYNEKFTAKATLTSDKSSSTVYMELSGLTSEDFAVYYCARSGGLLRGYWYFDVWGAGTTVTVSS
VL: DLVLTQSPATLSVTPGDSVSLSCRASQDITNTLHWYHQKSHESPRLLIKYVSQSISGIPSRFSGSGSGTVFTLSINSVETEDFGVYFCQQSTSWPYTFGGGTKLEIKR

neutralisation of polyclonal anti-FVIII antibodies (chromogenic assay) (% neutralisation) [6]: < 60
B3: anti-idiotypic antibody Ab 14C12 obtained from cell line 14C12 (LMBP 5878CB) (antibody, V domains shown)
VH: EVQLQQSGPELVKPGASVKLSCKASGYTFTSSVMHWLKQKSGQGLEWIGYINPYNDGTKYNEKFTAKATLTSDKSSSTVYMELSGLTSEDFAVYYCARSGGLLRGYWYFDVWGAGTTVTVSSAKTTAPSVYPLVPGC
VL: DLVLTQSPATLSVTPGDSVSLSCRASQDITNTLHWYHQKSHESPRLLIKYVSQSISGIPSRFSGSGSGTVFTLSINSVETEDFGVYFCQQSTSWPYTFGGGTKLEIKRADAAPTVSIFPPSSE
